Measured values taken from patent US20250388664A1 (BIOARCTIC, published 2025).
Read-outs that look alike come from different tables or passages of the source.

What was measured:
[1] = target: T1, AβpE3-42 protofibrils (UniProt P05067 674-713, pyroglutamate at position 3 (N-terminal residue)); assay: SPR, protofibrils immobilised, antibody injected, 1:1 fit, apparent
T1 construct: range 3-42 (Aβ numbering); Soluble aggregates made from AβpE3-42 peptide, purified in the void peak of SEC; also called AβpE3-42 PF
Protocol: (§1) Single cycle kinetics was also used to measure binding of the antibodies to AβpE3-42 protofibrils. […] For binding to AβpE3-42 protofibrils, the antibodies were injected over the chip using a 3-fold dilution series in five steps starting at 700 nM, using 2 min injection of every antibody concentration and a 60 min dissociation time. Regeneration of the surface between cycles was done by injecting 30 μl 10 mM glycine-HCl pH 1.7. The binding data was fitted to a 1:1 interaction model.
(§2) In all SPR experiments, 1×HBS-EP+ (Cytiva, cat. no. BR100669) was used as running buffer and to dilute antibodies and target antigens. Experiments were performed at 25° C.

[2] = target: T2, Aβ1-42 monomer (UniProt P05067 672-713); assay: ELISA: Aβ monomer captured on a polyclonal anti-Aβ42 coat, hybridoma supernatant diluted 1/243, anti-mouse IgG-HRP
T2 construct: range 1-42 (Aβ numbering)

[3] = target: T3, Aβ2-42 monomer (UniProt P05067 673-713); assay: as above
T3 construct: range 2-42 (Aβ numbering)

[4] = target: T4, AβpE11-28 monomer (UniProt P05067 682-699, pyroglutamate at position 11 (N-terminal residue)); assay: SPR, antibody immobilised
T4 construct: range 11-28 (Aβ numbering)
T4 peptide (looked up): EVHHQKLVFFAEDVGSNK
Protocol: (§3) Single cycle kinetics with the antibodies immobilized on a CM5 chip was used to measure the binding of the antibodies to the different monomers (AβpE3-40, AβpE11-28, Aβ1-28, Aβ2-28, Aβ3-28 and Aβ4-28). For the measurements, 5 μg/ml of analyte antibody was immobilized on the chip. […] Regeneration of the surface between cycles was done by injecting 30 μl 3 M MgCl₂. The binding data was fitted to a 1:1 interaction model.
as §2

[5] = target: T5, Aβ2-28 monomer (UniProt P05067 673-699); assay: SPR, antibody immobilised
T5 construct: range 2-28 (Aβ numbering)
Protocol: as §3, §2

[6] = target: T6, AβpE3-40 monomer (UniProt P05067 674-711, pyroglutamate at position 3 (N-terminal residue)); assay: SPR, antibody immobilised, monomer injected, 1:1 fit
T6 construct: range 3-40 (Aβ numbering); Synthetic peptide (Bachem/Anaspec), verified monomeric by SEC; also called monomeric AβpE3-40
Protocol: as §3, §2

[7] = target: T7, Aβ3-28 monomer (UniProt P05067 674-699); assay: as above
T7 construct: range 3-28 (Aβ numbering)
Protocol: as §3, §2

[8] = target: T8, Aβ4-28 monomer (UniProt P05067 675-699); assay: as above
T8 construct: range 4-28 (Aβ numbering)
Protocol: as §3, §2

[9] = target: T6, AβpE3-40 monomer; assay: inhibition ELISA, antigen titrated in solution, AβpE3-40 coat
Protocol: (§4) For binding to Aβ1-40 and AβpE11-40, the positive control 4G8 (Covance #SIG-39320, epitope: amino acids 17-24 of Aβ) was included. The recombinant antibodies were incubated at a fixed concentration (0.05 μg/ml) with titrating concentrations of the different Aβ antigens. After incubation for 45 min at 900 rpm to reach equilibrium, the antibody-Aβ samples were added to a blocked and washed ELISA plate with an AβpE3-40 coat (0.5 μM). The samples were incubated on the plate for 25 min without shaking followed by washing, incubation with detection antibody, another washing step and finally incubation with alkaline phosphatase substrate.

[10] = target: T1, AβpE3-42 protofibrils; assay: as above
Protocol: as §4

[11] = target: T9, Aβ1-40 monomer (UniProt P05067 672-711); assay: as above
T9 construct: range 1-40 (Aβ numbering)
Protocol: as §4

[12] = target: T10, AβpE11-40 monomer (UniProt P05067 682-711, pyroglutamate at position 11 (N-terminal residue)); assay: as above
T10 construct: range 11-40 (Aβ numbering)
T10 peptide (looked up): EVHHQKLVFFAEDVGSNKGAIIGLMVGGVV
Protocol: as §4

[13] = target: T11, Aβ1-28 monomer (UniProt P05067 672-699); assay: SPR, antibody immobilised
T11 construct: range 1-28 (Aβ numbering)
Protocol: Affinity and specificity evaluation and KD determination by surface plasmon resonance: Binding interactions between antigens and antibodies were evaluated by SPR using a Biacore 8K instrument (Cytiva) according to standard procedures. […] Additionally, the specificity towards different N-truncated forms of Aβ (Aβ2-28, Aβ3-28, Aβ4-28 and AβpE11-28 monomers) was evaluated.
as §3, §2

[14] = target: T1, AβpE3-42 protofibrils; assay: SPR, protofibrils immobilised, antibody injected, 1:1 fit, apparent; binding to AβpE3-42 protofibrils (not monomer); KD in pM
Protocol: as §1, §2

[15] = target: T12, truncated hTfR1 of SEQ ID NO:122 (human, UniProt P02786 122-760); assay: SPR, TfR1 amine-coupled, Fab injected, 1:1 fit
T12 construct: also called human TfR1; Human TfR1
Protocol: (§5) Binding of the purified Fabs to human and cynomolgus TfR1 was evaluated using either SPR (FIG. 44) or indirect ELISA (FIG. 45). For SPR, a Biacore 8K instrument (Cytiva) was used. […] The Fabs were injected over the chip using a 2-fold dilution series in four steps starting at 100 nM. The interaction was measured using the single cycle kinetics method with a contact time of 120 s at a flow rate of 30 μl/min followed by a dissociation time of 1000 s. Regeneration of the surface between cycles was done by injecting 3M MgCl₂. The binding data was fitted to a 1:1 interaction model. The Fabs were diluted in HBS-EP+ (Cytiva, #BR100669). Experiments were performed at 25° C.

[16] = target: T13, truncated cTfR1 of SEQ ID NO:123 (cynomolgus monkey, UniProt Q5RDH6 122-760 (Pongo abelii entry)); assay: SPR, TfR1 amine-coupled, Fab injected, 1:1 fit
T13 construct: also called cynomolgus TfR1
T13 chain: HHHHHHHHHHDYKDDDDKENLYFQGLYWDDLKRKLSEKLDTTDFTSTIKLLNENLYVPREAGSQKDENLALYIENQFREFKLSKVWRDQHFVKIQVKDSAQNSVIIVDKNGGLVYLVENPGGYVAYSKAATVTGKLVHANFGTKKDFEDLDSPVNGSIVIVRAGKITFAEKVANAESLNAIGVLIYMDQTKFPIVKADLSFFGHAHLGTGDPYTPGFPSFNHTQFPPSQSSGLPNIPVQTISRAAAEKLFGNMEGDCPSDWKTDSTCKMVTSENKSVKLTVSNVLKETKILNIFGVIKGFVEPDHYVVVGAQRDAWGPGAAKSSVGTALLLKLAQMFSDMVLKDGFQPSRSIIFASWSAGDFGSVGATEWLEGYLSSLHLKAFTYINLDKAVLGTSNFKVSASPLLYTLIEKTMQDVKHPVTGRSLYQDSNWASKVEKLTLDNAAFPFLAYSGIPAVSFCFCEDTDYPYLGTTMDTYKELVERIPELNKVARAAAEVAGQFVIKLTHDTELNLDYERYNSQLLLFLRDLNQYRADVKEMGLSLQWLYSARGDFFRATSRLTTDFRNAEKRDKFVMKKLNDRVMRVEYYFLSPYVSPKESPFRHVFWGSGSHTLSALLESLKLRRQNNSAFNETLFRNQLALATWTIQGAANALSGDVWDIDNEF
Protocol: as §5

[17] = target: T14, ectodomain of human TfR1 (His10-hTfR1; SEQ ID NO:110) (human, UniProt P02786 89-760); assay: indirect ELISA: plate coated with 1 µg/ml hTfR1 ectodomain, Fab in 1:3 serial dilution, anti-human IgG F(ab')2-HRP
T14 construct: also called ectodomain of hTfR1
Protocol: For the indirect ELISA, half area 96-well plates (Corning, #3690) were coated with 1 μg/ml recombinant ectodomain of hTfR1 (SEQ ID NO:110) in PBS overnight at 4° C. The coated plates were blocked using Pierce protein-free blocking solution (Thermo Fisher Scientific, #37572) for 1 h at room temperature with shaking and washed four times in PBS containing 0.1% TWEEN-20. Serial dilutions (1:3) of various expressed constructs in incubation buffer (1% BSA, 0.1% TWEEN-20 in PBS) were incubated for 1 h at room temperature. […] Following four wash steps, K-Blue® Aqueous TMB substrate (Neogen, #331177) was added to the wells for 15 min at room temperature before the reaction was stopped with 1:1 dilution of 0.5 M H₂SO₄. The optical density at 450 nm was recorded (Spark, Tecan) and background signal was subtracted before analysis.

[18] = target: T12, truncated hTfR1 of SEQ ID NO:122; assay: SPR, TfR1 amine-coupled, Fab injected, 1:1 fit; remark: listed apart in the source
Protocol: (§6) The interaction was measured using the single cycle kinetics method with a contact time of 120 s at a flow rate of […] followed by a dissociation time of 600 s. Regeneration of the surface between cycles was done by injecting 3M MgCl₂. The binding data were fitted to a 1:1 interaction model. The Fabs were diluted in HBS-EP+ (Cytiva, #BR100669). Experiments were performed at 25° C.

[19] = target: T13, truncated cTfR1 of SEQ ID NO:123; assay: SPR, TfR1 amine-coupled, Fab injected, 1:1 fit
Protocol: as §6

[20] = target: T15, hTfR1 (recombinant, construct not specified) (human, UniProt P02786 89-760, limits assumed); assay: ELISA on coated hTfR1, biotinylated scFv detected with streptavidin-HRP, after 48 h in mouse serum or PBS at 37°C or 4°C
T15 construct: also called biotinylated hTfR1
Protocol: After 48 h incubation, binding of the scFv to hTfR1 was evaluated by ELISA. […] The reaction was stopped by 1:1 addition of 0.5 M sulfuric acid (#35354-1L, Honeywell). Optical density at 450 nm was obtained using a microplate reader (Spark, Tecan) and the collected data was plotted using GraphPad Prism software (GraphPad Software Inc).

T1 sequence (P05067 674-713): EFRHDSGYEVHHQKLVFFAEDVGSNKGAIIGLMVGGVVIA
T7 sequence (P05067 674-699): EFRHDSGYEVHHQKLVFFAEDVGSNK
T8 sequence (P05067 675-699): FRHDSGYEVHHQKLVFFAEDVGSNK
T11 sequence (P05067 672-699): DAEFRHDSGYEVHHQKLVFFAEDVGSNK
T2 sequence (P05067 672-713): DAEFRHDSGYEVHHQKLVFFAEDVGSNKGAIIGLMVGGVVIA
T5 sequence (P05067 673-699): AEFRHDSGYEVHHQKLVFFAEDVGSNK
T3 sequence (P05067 673-713): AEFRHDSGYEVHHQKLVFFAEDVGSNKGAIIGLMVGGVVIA

B1: Pyr12.2 (antibody, V domains shown)
VH: EVQLQQSGPELVKPGTSIKMSCKASGYSFTGFTMNWVKQSHGKNLEWIGLINPYNGVTTYNQKFKGKATITVDKSSRTAYMELLSLTYEDSAVYYCTREGNWEGVYWGQGTPVTVSA
VL: EVVLTQTPLTLSVTIGQSASISCKSSQSLLDSNGKTYLHWFLLRPGQSPKRLIYLVSILDSGVPDRFTGSGSGTDFTLKISRVEAEDLGIYYCVQGTHFPFTFGSGTKLEIKR
notes: Murine anti-AβpE3 antibody; also called recombinant antibody Pyr12.2; hybridoma clone Pyr12.2
In the case of B1, the koff [1] is reported as 3.31e-06 s⁻¹, the kon [1] is reported as 63100 M⁻¹ s⁻¹ and the binding result [2] is reported as “no binding”. B1: no binding [3]; no binding (tested: 2500 nM) [4]; no binding (tested: 2500 nM) [5]. It also gave a Kd [6] of 0.57 nM, a koff [6] of 4.12e-05 s⁻¹ and a kon [6] of 71800 M⁻¹ s⁻¹. It also gave a Kd [7] of 42.6 nM, a koff [7] of 5.77e-05 s⁻¹ and a kon [7] of 1750 M⁻¹ s⁻¹. For the same binder, the Kd [8] was 6760 nM, the koff [8] was 0.481 s⁻¹ and the kon [8] was 78200 M⁻¹ s⁻¹. The IC50 [9] was 1.52 nM, the IC50 [10] was 8.43 nM and the IC50 [11] was greater than 5000 nM. The IC50 [12] was greater than 5000 nM, the binding result [13] was “no binding (tested: 2500 nM)” and the Kd [14] was 0.0536 nM.

B2: h26D3-Fab (Fab, V domains shown)
VH: EVQLVQSGAEVKKPGSSVKVSCKASGYIFTDYNMDWVRQAPGQGLEWIGDINPDYDTTSYNEKFKGRATLTVDKSTSTAYMELSSLRSEDTAVYYCARGGYSGSSYYHPMDYWGQGTLVTVSS
VL: DIQMTQSPSSVSASVGDRVTITCKSSQSLLYSTNQKNYLAWYQQKPGKAPKLLIYWASTRESGVPSRFSGSGSGTDFTLTISSLQPEDFATYYCQQYFIYPRTFGQGTKVEIK
notes: His-tagged Fab from ExpiCHO; also called humanized 26D3 Fab
B2 was tested, and the Kd [15] was 10 nM, the Kd [16] was 12 nM and the “EC50 (read off the curve)” value [17] was roughly 0.3 nM. For the same binder, the Kd [18] was 3.2 nM, the koff [18] was 0.0045 s⁻¹ and the kon [18] was 1.2e+06 M⁻¹ s⁻¹. It also gave a Kd [19] of 5.8 nM.

B3: h26D3wt_DS, VL-first (His6 and Avi tags, biotinylated) (scFv)
scFv: DIQMTQSPSSVSASVGDRVTITCKSSQSLLYSTNQKNYLAWYQQKPGKAPKLLIYWASTRESGVPSRFSGSGSGTDFTLTISSLQPEDFATYYCQQYFIYPRTFGCGTKVEIKGGGGSGGGGSGGGGSGGGGSEVQLVQSGAEVKKPGSSVKVSCKASGYIFTDYNMDWVRQAPGQCLEWIGDINPDYDTTSYNEKFKGRATLTVDKSTSTAYMELSSLRSEDTAVYYCARGGYSGSSYYHPMDYWGQGTLVTVSS
modifications: biotin on the Avi tag (site directed in vivo biotinylation)
In the case of B3, the “EC50 (read off the curve)” value [20] is reported as roughly 0.02 µg/mL.
